Data on 27 molecules can be found in patent publication US20210380679A1 (INHIBRX BIOSCIENCES, published 2021).

B1: hz10D9v7 (Fc fusion)
VHH: EVQLVESGGGEVQPGGSLRLSCAASGSIFSINAMGWYRQAPGKQRELVAGFTGDTNTIYAESVKGRFTISRDNAKNTVYLQMSSLRAEDTAVYYCAADVQLFSRDYEFYWGQGTLVTVKP
notes: tested as VHH-human Fc; Fc not specified
B2: hz10D9v6 (Fc fusion)
VHH: EVQLVESGGGEVQPGGSLRLSCAASGSILSINAMGWYRQPPGKQRELVAGFTGDTNTIYAESVKGRFTISRDNAKNTVYLQMSSLRAEDTAVYYCAADVQLFSRDYEFYWGQGTLVTVKP
notes: as for B1
B3: hz3C5v4 (Fc fusion)
VHH: EVQLVESGGGEVQPGGSLRLSCAASGSIFSINAMGWYRQAPGKQRELVAGFTGEGSTKYAESVKGRFTISRDNAKNTVYLQMSSLRAEDTAVYYCAADVQLLNSDYEFYWGQGTLVTVKP
notes: as for B1
B4: hz10D9v5 (Fc fusion)
VHH: EVQLVESGGGEVQPGGSLRLSCAASGSILSINAMGWYRQAPGKQRELVAGFTGDTNTIYAESVKGRFTISRDNAKNTVYLQMSSLRAEDTAVYYCAADVQLFSRDYEFYWGQGTLVTVKP
notes: as for B1
B5: hz3C5v8 (Fc fusion)
VHH: EVQLVESGGGEVQPGGSLRLSCAASGSIFSINAMGWYRQAPGKQRELVAGFTGDGSTKYAESVKGRFTISRDNAKNTVYLQMSSLRAEDTAVYYCAADVQLLNTDYEFYWGQGTLVTVKP
notes: as for B1
B6: hz3C5v5 (Fc fusion)
VHH: EVQLVESGGGEVQPGGSLRLSCAASGSIFSINAMGWYRQAPGKQRELVAGFTGDGSTKYAESVKGRFTISRDNAKNTVYLQMSSLRAEDTAVYYCAADVQLLSSDYEFYWGQGTLVTVKP
notes: as for B1
B7: hz3C5v7 (Fc fusion)
VHH: EVQLVESGGGEVQPGGSLRLSCAASGSIFSINAMGWYRQAPGKQRELVAGFTGDGSTKYAESVKGRFTISRDNAKNTVYLQMSSLRAEDTAVYYCAADVQLLQSDYEFYWGQGTLVTVKP
notes: as for B1
B8: hz3C5v3 (Fc fusion)
VHH: EVQLVESGGGEVQPGGSLRLSCAASGSIFSINAMGWYRQAPGKQRELVAGFTGDTSTKYAESVKGRFTISRDNAKNTVYLQMSSLRAEDTAVYYCAADVQLLNSDYEFYWGQGTLVTVKP
notes: as for B1
B9: hz10D9v2 (Fc fusion)
VHH: EVQLVESGGGEVQPGGSLRLSCAASGSILSINAMGWYRQAPGKQRELVAGFTGDGNTIYAESVKGRFTISRDNAKNTVYLQMSSLRAEDTAVYYCAADVQLFSRDYEFYWGQGTLVTVKP
notes: as for B1
B10: hz3C5v1 (Fc fusion)
VHH: EVQLVESGGGEVQPGGSLRLSCAASGSIFSINAMGWYRQAPGKQRELVAGFTGDGSTKYAESVKGRFTISRDNAKNTVYLQMSSLRAEDTAVYYCAADVQLLNSDYEFYWGQGTLVTVKP
notes: as for B1
B11: hz10D9v1 (Fc fusion)
VHH: EVQLVESGGGEVQPGGSLRLSCAASGSILSINAMGWYRQAPGKQREMVAGFTGDGNTIYAESVKGRFTISRDNAKNTVYLQMSSLRAEDTAVYYCAADVQLFSRDYEFYWGQGTLVTVKP
notes: as for B1
B12: hz3C5v2 (Fc fusion)
VHH: EVQLVESGGGEVQPGGSLRLSCAASGSIFSINAMGWYRQPPGKQRELVAGFTGDGSTKYAESVKGRFTISRDNAKNTVYLQMSSLRAEDTAVYYCAADVQLLNSDYEFYWGQGTLVTVKP
notes: as for B1
B13: hz3G3v1 (Fc fusion)
VHH: EVQLVESGGGEVQPGGSLRLSCAASGSIFSINAMGWYRQAPGKQRELVAGFTGDGMTKYAESVKGRFTISRDNAKNTVYLQMSSLRAEDTAVYYCAADVFTDRDHVDWYWGQGTLVTVKP
notes: as for B1
B14: hz3C5v6 (Fc fusion)
VHH: EVQLVESGGGEVQPGGSLRLSCAASGSIFSINAMGWYRQAPGKQRELVAGFTGDGSTKYAESVKGRFTISRDNAKNTVYLQMSSLRAEDTAVYYCAADVQLLTSDYEFYWGQGTLVTVKP
notes: as for B1
B15: hz10D9v3 (Fc fusion)
VHH: EVQLVESGGGEVQPGGSLRLSCAASGSILSINAMGWYRQAPGKQREMVAGFTGEGNTIYAESVKGRFTISRDNAKNTVYLQMSSLRAEDTAVYYCAADVQLFSRDYEFYWGQGTLVTVKP
notes: as for B1
B16: hz10D9v4 (Fc fusion)
VHH: EVQLVESGGGEVQPGGSLRLSCAASGSILSINAMGWYRQAPGKQREMVAGFTGDTNTIYAESVKGRFTISRDNAKNTVYLQMSSLRAEDTAVYYCAADVQLFSRDYEFYWGQGTLVTVKP
notes: as for B1
B17: hz5A7v1 (Fc fusion)
VHH: EVQLVESGGGEVQPGGSLRLSCAASGSDFSINAIGWYRQAPGKQRDMVAGFTGDGVTTYAESVKGRFTISRDNAKNTVYLQMSSLRAEDTAVYYCAADVKIGGDYEWFWGQGTLVTVKP
notes: as for B1
B18: hz5A7v6 (Fc fusion)
VHH: EVQLVESGGGEVQPGGSLRLSCAASGSDFSINAIGWYRQPPGKQRDMVAGFTGDGVTTYAESVKGRFTISRDNAKNTVYLQMSSLRAEDTAVYYCAADVKIGGDYEWFWGQGTLVTVKP
notes: as for B1
B19: hz5A7v2 (Fc fusion)
VHH: EVQLVESGGGEVQPGGSLRLSCAASGSDFSINAIGWYRQAPGKQRDMVAGFTGDTVTTYAESVKGRFTISRDNAKNTVYLQMSSLRAEDTAVYYCAADVKIGGDYEWFWGQGTLVTVKP
notes: as for B1
B20: hz5A7v4 (Fc fusion)
VHH: EVQLVESGGGEVQPGGSLRLSCAASGSDFSINAIGWYRQAPGKQRDLVAGFTGDGVTTYAESVKGRFTISRDNAKNTVYLQMSSLRAEDTAVYYCAADVKIGGDYEWFWGQGTLVTVKP
notes: as for B1
B21: hz5A7v5 (Fc fusion)
VHH: EVQLVESGGGEVQPGGSLRLSCAASGSDFSINAIGWYRQAPGKQRDWVAGFTGDGVTTYAESVKGRFTISRDNAKNTVYLQMSSLRAEDTAVYYCAADVKIGGDYEWFWGQGTLVTVKP
notes: as for B1
B22: L5A7 (Fc fusion)
VHH: EVQLVQSGGGLVQPGGSLRLSCAASGSDFSINAIGWYRQAPGKQRDMVAGFTGDGVTTYADSVKGRFTISRDNAKNTVYLQMNSLKPEDTAVYYCAADVKIGGDYEWFWGQGTQVTVKP
notes: as for B1
B23: hz5A7v3 (Fc fusion)
VHH: EVQLVESGGGEVQPGGSLRLSCAASGSDFSINAIGWYRQAPGKQRDMVAGFTGEGVTTYAESVKGRFTISRDNAKNTVYLQMSSLRAEDTAVYYCAADVKIGGDYEWFWGQGTLVTVKP
notes: as for B1
B24: L3G3 (Fc fusion)
VHH: QVQLVQSGGGLVQAGGSLRLSCAASGSIFSINAMGWYREAPGKQRELVAGFTGDGMTKYAESVKGRFTFSRDNAKNTVYLQMNSLKPEDTGVYYCAADVFTDRDHVDWYWGQGTQVTVKP
notes: as for B1
B25: hz3G3v2 (Fc fusion)
VHH: EVQLVESGGGEVQPGGSLRLSCAASGSIFSINAMGWYREAPGKQRELVAGFTGDGMTKYAESVKGRFTISRDNAKNTVYLQMSSLRAEDTAVYYCAADVFTDRDHVDWYWGQGTLVTVKP
notes: as for B1
B26: hz3G3v3 (Fc fusion)
VHH: EVQLVESGGGEVQPGGSLRLSCAASGSIFSINAMGWYRQAPGKQRELVAGFTGDGMTKYAESVKGRFTFSRDNAKNTVYLQMSSLRAEDTAVYYCAADVFTDRDHVDWYWGQGTLVTVKP
notes: as for B1
B27: hz3G3v4 (Fc fusion)
VHH: EVQLVESGGGEVQPGGSLRLSCAASGSIFSINAMGWYRQAPGKQRELVAGFTGDGMTKYAESVKGRFTISRDNAKNTVYLQMSSLRAEDTGVYYCAADVFTDRDHVDWYWGQGTLVTVKP
notes: as for B1

This assay addresses T1, human DLL3 (Delta-like ligand 3) (human, UniProt Q9NYJ7 27-618).
T1 construct: endogenous on SHP-77 cells; also called cell-surface DLL3
T1 sequence: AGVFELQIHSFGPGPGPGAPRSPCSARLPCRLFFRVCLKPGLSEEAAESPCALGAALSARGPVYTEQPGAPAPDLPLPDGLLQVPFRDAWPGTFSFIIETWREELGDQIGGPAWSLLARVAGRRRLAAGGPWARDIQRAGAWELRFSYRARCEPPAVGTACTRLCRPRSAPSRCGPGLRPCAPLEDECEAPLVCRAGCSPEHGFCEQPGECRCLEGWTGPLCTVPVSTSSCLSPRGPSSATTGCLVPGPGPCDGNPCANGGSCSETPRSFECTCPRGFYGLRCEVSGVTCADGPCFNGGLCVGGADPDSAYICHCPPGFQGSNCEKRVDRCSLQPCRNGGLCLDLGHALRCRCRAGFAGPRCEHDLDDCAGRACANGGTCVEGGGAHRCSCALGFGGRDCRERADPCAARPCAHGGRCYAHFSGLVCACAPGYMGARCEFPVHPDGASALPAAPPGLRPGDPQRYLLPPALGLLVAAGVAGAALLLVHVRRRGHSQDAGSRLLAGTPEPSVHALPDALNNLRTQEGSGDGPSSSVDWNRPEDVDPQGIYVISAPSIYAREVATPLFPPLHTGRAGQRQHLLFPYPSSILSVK
Kind of assay: flow cytometry, sdAb-Fc titrated on SHP-77 cells (DLL3 positive), APC anti-human Fc secondary. The method, then: FIGS. 2A-L set forth a series of graphs depicting the ability of sdAb and humanized variants thereof targeting DLL3 to bind cell surface DLL3.
Specificity and relative affinity were assessed for purified sdAb-Fcs on DLL3-expressing cells. […] A titration series of the fusion protein was incubated with the DLL3-expressing cell lines (approximately 2.5×10⁴ to 5×10⁴ cells/well) for 30 minutes at 4 degrees Celsius in FACS Buffer (PBS 1% BSA, 0.1% NaN₃ pH 7.4) in 96-well plates. Following three wash steps in FACS buffer, an APC-conjugated anti-human Fcγ specific secondary antibody (Jackson ImmunoResearch) was added and incubated for 30 minutes at 4 degrees Celsius. Following three additional wash steps in FACS buffer bound antibody was detected via flow cytometry (IQue Intellicyte).
Turning to B1, the binding result is “binds”.

Take B2: the binding result is given as “binds”.

For the molecule B3, the binding result is on record as “binds”.

As for B4, the binding result was “binds”.

On to B5, for which the binding result is recorded as “binds”.

As for B6, the binding result is on record as “binds”.

Turning to B7, the binding result was “binds”.

On to B8, for which the binding result is “binds”.

B9: the binding result was “binds”.

For B10, the binding result is “binds”.

In the case of B11, the binding result is “binds”.

As to B12, the “EC50 (read off the curve)” value is approximately 0.7 nM.

As for B13, the binding result is recorded as “binds”.

Turning to B14, the binding result was “binds”.

As for B15, the binding result is “binds”.

For the molecule B16, the binding result was “binds”.

Consider B17, for which the binding result was “binds”.

For the molecule B18, the binding result is reported as “binds”.

Take B19: the binding result was “binds”.

In the case of B20, the binding result is recorded as “binds”.

Regarding B21, the binding result is “binds”.

For the molecule B22, the binding result is recorded as “binds”.

As to B23, the binding result is reported as “binds”.

Consider B24, for which the binding result is “binds”.

In the case of B25, the binding result is “binds”.

B26: the binding result is given as “binds”.

As for B27, the binding result is on record as “binds”.

By EC50 (read off the curve) is commonly meant the concentration giving half of the maximal effect. The low end stands for higher potency in that assay, the high end for lower potency in that assay.
